Columns and labels:
[1] = molecular target: mammalian expressed RBD (mRBD) of SARS-CoV-2 spike (SARS-CoV-2) (UniProt P0DTC2); test: nanoDSF thermal shift
[2] = molecular target: mammalian expressed RBD (mRBD) of SARS-CoV-2 spike (SARS-CoV-2) (UniProt P0DTC2); test: SPR
[3] = molecular target: mammalian expressed RBD (mRBD) of SARS-CoV-2 spike (SARS-CoV-2) (UniProt P0DTC2); test: SEC-MALS

LCB1 (designed binder) was tested, and the other [1] was 16 °C, the Kd [2] was 0.042 nM and the stoichiometry N [3] was 1 LCB1:RBD.
